In the RNAGym collection of RNA variant scans (doi:10.7554/elife.80360) one finds self-cleavage data, which are given here for 38 variants.

B1: Hairpin Ribozyme (parent)
chain: GUCCUCUUUCACGUGCGCGUGAAAGAGAGAAGUGAACCAGAGAAACACACGUUGUGGUAUAUUACCUGGUA

The variants in this series derive from B1. The series is described as follows: self-cleavage, relative activity (ratio to wild type); higher = more cleavage; co-transcriptional.
As for GUCAUCUUUCACGUGCGCGUGAAAGAGAGAAGUGAACCAGAGAAACACACGUUGUGGUACAUUACCUGGUA [C4A U60C], the self-cleavage was 0.521.
GUGCUCUUUCACGUGCGCGUGAAAGAGAGAAGUGAACCAGAGAAACACACGUUGUGGUAUAUCACCUGGUA [C3G U63C]: the self-cleavage was found to be 0.164.
In the case of GUCCUCUUUCACGUGCGCUUGAAAGAGAGAAGUGAACCAGAGAAACACAAGUUGUGGUAUAUUACCUGGUA [G19U C50A], the self-cleavage was 0.329.
As for GUCCUGUUUCACGUGCGCGUGAAAGAGAUAAGUGAACCAGAGAAACACACGUUGUGGUAUAUUACCUGGUA [C6G G29U], the self-cleavage is 0.0829.
For the variant GUCCUCUUUCACGUGCCCGUGAAAGAGAGAAGUGAACCAGAGAAACACACGUUGUGGUAUGUUACCUGGUA [G17C A61G], the self-cleavage was 0.225.
As for GUCCUCUUUGACGUGCGCGUGAAAGAGAGAAGUGAACCAGAGAAACUCACGUUGUGGUAUAUUACCUGGUA [C10G A47U], the self-cleavage amounted to 0.175.
With GUCCUCUUUCACGUGCGCGUGAAAGAGAGAAAUGAACCAGCGAAACACACGUUGUGGUAUAUUACCUGGUA [G32A A41C] the figure was 0.145; with GUCCUCUUUCACGUGCGCGUGAAAGAGAGAAGCGAACCAGAGAAACACACGUUGUGGUGUAUUACCUGGUA [U33C A59G], 0.083.
Regarding GUCCUCUUUCACGUGCGCGUGAAAGAGAGAAGUGGACCAGAGAAACACACGUUGAGGUAUAUUACCUGGUA [A35G U55A], the self-cleavage came to 0.292.
On to GUCCUCUUUCGCGUGCGCGUGAAAGAGAGAAGUGAACCAGAGAUACACACGUUGUGGUAUAUUACCUGGUA [A11G A44U], for which the self-cleavage is 0.137.
Turning to GUCCUCUUUCACGUGCACGUGAAAGAGAGAAGUGAACCAGAGAAACACACGUUGUGGUAUAUUACCGGGUA [G17A U67G], the self-cleavage was 0.243.
In the case of GUCCUCUUUCACGUGCGCGUGAAAGAGAGAAGUGAACCAGAGAAACACACGUUGUGGUAUAUUACCACGUA [U67A G68C], the self-cleavage turned out to be 0.157.
As to GUCCUCUUUCACAUGCGCGUGAAAGAGAGAAGUGAACCAGAGAAACACACGUAGUGGUAUAUUACCUGGUA [G13A U53A], the self-cleavage turned out to be 0.856.
As to GUCCUCUUUCACGUGCGCGUGAACGAGAGAAUUGAACCAGAGAAACACACGUUGUGGUAUAUUACCUGGUA [A24C G32U], the self-cleavage was determined as 0.166.
For the variant GUCCUCUGUCACGUGCGCGUGAAAGAGAGAAGUGAACCAGAGAAACACACGUUGUGGUAUAUUAACUGGUA [U8G C65A], the self-cleavage is 0.97.
As for GUCCUCUUUCACGUGCGCAUGAAAGAGAGAAGUGAACCAGAGAAACACACGUUGUGGUAUAUUACCCGGUA [G19A U67C], the self-cleavage is 0.186.
As to GUCCUCUUUUACGUGCGCGUGUAAGAGAGAAGUGAACCAGAGAAACACACGUUGUGGUAUAUUACCUGGUA [C10U A22U], the self-cleavage stood at 0.373.
As to GUCCUCUUUCACGUGCGCGUGAAAGAGAGAAGUGAACCAAAGAAACACACGGUGUGGUAUAUUACCUGGUA [G40A U52G], the self-cleavage came to 0.212.
In the case of GUCCUCUUUCACGUGCGUGUGAAAGAGAGAAGUGAACCAGAGAAACACACGUUGAGGUAUAUUACCUGGUA [C18U U55A], the self-cleavage was 0.128.
With GUCCUCUUUCACGGGCGCGUGAAAGAGAGAAGUGCACCAGAGAAACACACGUUGUGGUAUAUUACCUGGUA [U14G A35C] the figure was 0.805; with GUUCUCUUUCACGUGCGCGUGAAAGAGAGAAGUGAAGCAGAGAAACACACGUUGUGGUAUAUUACCUGGUA [C3U C37G], 0.262.
As for GUCCUCUUUCACGUGCUCGUGAAAGAGAGAAGUGACCCAGAGAAACACACGUUGUGGUAUAUUACCUGGUA [G17U A36C], the self-cleavage stood at 0.587.
Under GUCCUCUUUUACGUGCGCGUGAAAGAGAGAAGUGAACCAGAGAUACACACGUUGUGGUAUAUUACCUGGUA [C10U A44U] stands 0.187; under GUCCUCUUUCACUUGCGCGUGAAAGAGAGAAGUGAACCAGAGAUACACACGUUGUGGUAUAUUACCUGGUA [G13U A44U], 0.147.
As to GUCCUCUGUCACGUGCGCGUGAAAGAGACAAGUGAACCAGAGAAACACACGUUGUGGUAUAUUACCUGGUA [U8G G29C], the self-cleavage was 0.141.
As to GUCCUCUUUCACGUGCGCGUGAAAGAGAGGAGUGAACCAGAGAAACUCACGUUGUGGUAUAUUACCUGGUA [A30G A47U], the self-cleavage is 0.131.
Regarding GUCCUCUCUCACGUGCGCGUGAAAGAGAGGAGUGAACCAGAGAAACACACGUUGUGGUAUAUUACCUGGUA [U8C A30G], the self-cleavage was determined as 0.144.
Consider GUCCUCUUUCACGUGCGCGUGAAAGAGAGAAGUGAACCACAGAAACACACGUUGUGGAAUAUUACCUGGUA [G40C U58A], for which the self-cleavage turned out to be 0.16.
With GUCCUCUUUCACGUGGGCGUGAAAGAGAGAAGUGAACCAGAGAAACACACGUUGUGGUAUAUUACCUGAUA [C16G G69A], the self-cleavage came out at 0.225.
Under GUCCUCUUUCACGUGCGCGUGAAGGAGAGAAGUGAACCAGAGAAACACACAUUGUGGUAUAUUACCUGGUA [A24G G51A] stands 0.745.
Under GUCCUCUUUCACGUGCGCGUGAAAGAGAGAAGUGAACCGGAGACACACACGUUGUGGUAUAUUACCUGGUA [A39G A44C] stands 0.0747.
Consider GUCCUCUUUCACGUGCGCGUGAAUGAGAGAAGUGAACCAGAUAAACACACGUUGUGGUAUAUUACCUGGUA [A24U G42U], for which the self-cleavage was found to be 0.342.
GUCAUCUUUCACGUGCGCGUGAAAGAGAGAAGUGAACCAGAGAAACACACGUUGUGGUAUAUUACCUGGGA [C4A U70G]: the self-cleavage worked out at 0.154.
In the case of GUCCUCUUUCACGUGCGCGUGAAAGAGAGAAGUGAUCCAGAGUAACACACGUUGUGGUAUAUUACCUGGUA [A36U A43U], the self-cleavage is 0.0848.
With GUCCUCUUUCACGUGCGCGUGAAAGAGAGAAGUGAACCAGAUAAACACACGUUGUGGUAUAUUACCGGGUA [G42U U67G] the figure was 0.127; with GUCCUCUUUUACGUGCGCGUGAAAGAGAGAAGUGAACCAGAGAAACACACGUUGUGGUAUAUUACCCGGUA [C10U U67C], 0.206.
With GUCCUCUUUCACGUGCGCGUGAAAGAGAGAAGUGAACAAGAGAAACACACGUUGUGGUAUAAUACCUGGUA [C38A U62A], the self-cleavage was 0.218.
GUCCUGUUUCACGUGCGCGUGAAAGAGAGAAGUGAACCAGAGAAACACACGUAGUGGUAUAUUACCUGGUA [C6G U53A]: the self-cleavage was 0.585.
